Assay results published in article PMC3326396 (Biochemistry, 2012).

B1: N-terminal Strep2-(G4S)3-tagged PhaC purified from R. eutropha (enzyme, Ralstonia eutropha H16, UniProt P23608 2-589, looked up)
chain: ATGKGAAASTQEGKSQPFKVTPGPFDPATWLEWSRQWQGTEGNGHAAASGIPGLDALAGVKIAPAQLGDIQQRYMKDFSALWQAMAEGKAEATGPLHDRRFAGDAWRTNLPYRFAAAFYLLNARALTELADAVEADAKTRQRIRFAISQWVDAMSPANFLATNPEAQRLLIESGGESLRAGVRNMMEDLTRGKISQTDESAFEVGRNVAVTEGAVVFENEYFQLLQYKPLTDKVHARPLLMVPPCINKYYILDLQPESSLVRHVVEQGHTVFLVSWRNPDASMAGSTWDDYIEHAAIRAIEVARDISGQDKINVLGFCVGGTIVSTALAVLAARGEHPAASVTLLTTLLDFADTGILDVFVDEGHVQLREATLGGGAGAPCALLRGLELANTFSFLRPNDLVWNYVVDNYLKGNTPVPFDLLFWNGDATNLPGPWYCWYLRHTYLQNELKVPGKLTVCGVPVDLASIDVPTYIYGSREDHIVPWTAAYASTALLANKLRFVLGASGHIAGVINPPAKNKRSHWTNDALPESPQQWLAGAIEHHGSWWPDWTAWLAGQAGAKRAAPANYGNARYRAIEPAPGRYVKAKA
B2: N-terminal-Strep2-(G4S)3-tagged PhaC purified from E. coli (enzyme, Ralstonia eutropha H16, UniProt P23608 2-589, looked up)
chain: B1 chain

Target: the molecule itself
Test: SEC

Protein	stoichiometry N
B1	2
B2	2
